Data from the RNAGym collection of RNA variant scans (doi:10.1073/pnas.2313332121).

B1: TPR t1 (parent)
chain: GACCAAUCUGCCCUCAGAGCUCGAGAACAUCUUCGGAUGCAGAGGAGGCAGGCUUCGGUGGCGCGAUAGCGCCAACGUCCUCAACCUCCAAUGCAUCCCACCACAUGAUGAUGCCUGAAGAGCCUUGGUUUUUUG

Variants of: B1
Test: polymerase ribozyme fitness, log enrichment relative to wild type (log ratio); higher = more active; in vitro selection for triplet polymerase activity
Method in brief: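 Mutant libraries of both subunits of a heterodimeric triplet polymerase ribozyme were PCR-built, transcribed, and selected once in triplicate, with frozen incubation at −7 °C and capture of gel-excised extended constructs on streptavidin beads before RT-PCR. Illumina sequencing of input and output libraries was filtered to genotypes with ≥10 input reads and ≥1 read per output. Fitness is the logarithm of genotype enrichment over wild-type enrichment, using inverse-variance-weighted replicate averages. The logarithm is base 2.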

Row | Variant | polymerase ribozyme fitness (log ratio)
1 | GACCAAUCUGCCCUCAGAGCUCGAGAACAUCUUCGGAUGCAGAGGAGGCAGGCUUCUGUGGCGCGAUAGCGCCAACGUCCUCAACCUCCAAUGCACCCCACCACAUGAUUAUGCCUGAAGAGCCUUGGUUUUUUG | -2.25
2 | GACCAAUCUGCCCUCAGAGCUCGAGAACAUCUUCGGAUGCAGAGGAGGCAGGCUUCGAUGGCGCGAUAGCGCCAACGUCCUCAACCUCCACUGCAUCCCAACACAUGAUGAUGCCUGAAGAGGCUUGGUUUUUUG | -1.04
3 | GACCAAUCUGCCCUCAGAGCUCGAGAACAUCUUCGGAUGCAGAGGAGGCAGGCUUCGAUGGCGCGAUAGCGGCAACGUCCUCAACCUCCAAUGCAUCCCACCACAUGAUGAUGCCUGAAGAGCCUUAGUUUUUUG | -1.35
4 | GACCAAUCUGCCCUCAGAGCUCGAGAACAUCUUCGGAUGCAGAGGAGGCAGGCUUCGAUGGUGCGAUAGCGCCAACGUCCUCAACCUUCAAUGCAUCCCACCACAUGAUGAUGCCUGAAGAGCCUUGGUUUUUUG | -0.946
5 | GACCAAUCUGCCCUCAGAGCUCGAGAACAUCUUCGGAUGCAGAGGAGGCAGGCUUCGAUGGCGCGAUAGCGCUAACGUCCUCAACCUCCAAUGCAUCCCACCACAUGAUGAUGCCUGAAGAGCCUUGGUUUUUUG | -0.192
6 | GACCAAUCUGCCCUCAGAGCUCGAGAACAUCUUCGGAUGCAGAGGAGGCAGGCUUCGAUGGCGCGAUAGCGCCAACGUCCUCAACCUCGAAUGCAUCCCACCACAUGAUGAUGCCUGAAGAGCCUUGGUUUUUUG | -2.2
7 | GACCAAUCUGCCCUCAGAGCUCGAGAACAUCUUCGGAUGCAGAGGAGGCAGGCUUCGAUGGCGCGAUAGCGCCAACGUCCUCCACCUCCAAUGCAUCCCACCACAUGAUGAUGCCUGAAGAGCCUUGGUUUUUUG | -0.717
8 | GACCAAUCUGCCCUCAGAGCUCGAGAACAUCUUCGGAUGCAGAGGAGGCAGGCUUCUGUGGCGCGAUAGCGCCAACGUCCUCAACCUCCAAAGCAUCCCACCACAUGAUGAUGCCUGAAACGCCUUGGUUUUUUG | -2.28
9 | GACCAAUCUGCCCUCAGAGCUCGAGAACAUCUUCGGAUGCAGAGGAGGCAGGCUUCGAUGGCGCGAUAGCGCCAACGUCCUCAACCUCCAAUGCAUCCUACCACAUGAUGAUGCCUGAAGAGCCUUGGUUUUUUG | -2.8
10 | GACCAAUCUGCCCUCAGAGCUCGAGAACAUCUUCGGAUGCAGAGGAGGCAGGCUUCUGUGGCGCGAUAGCGCCAACGUCCUCAACCUCCAAUGCAUCCCACCACAUGAUGAUGCCUGAAGAGCCUUGGGUUUUUG | -1.65
11 | GACCAAUCUGCCCUCAGAGCUCGAGAACAUCUUCGGAUGCAGAGGAGGCAGGCUUCUGUGGCGCGAUAGCGCCAACGUCCUCAACCGCCAAUGCAUCCCACCACAUGAUGAUGCCUGAAGAGCCUUGGUUUUUUG | 0.0269
12 | GACCAAUCUGCCCUCAGAGCUCGAGAACAUCUUCGGAUGCAGAGGAGGCAGGCUUCGAUGGCGCGAUAGCGUCAACGUCCUCAACCUCCAAUGCAUCCCACCACAUGAUGAUGCCUGAAGAGCCUUGGUUUUUUG | 0.786
13 | GACCAAUCUGCCCUCAGAGCUCGAGAACAUCUUCGGAUGCAGAGGAGGCAGGCUUCGAUGGCGCGAUAGCGCCAACGUCCUUAACCUCCAAUUUACCCCACCACAUGAUGAUGCCUGAAGAGUCUUGGUUUUUUG | -3.17
14 | GACCAAUCUGCCCUCAGAGCUCGAGAACAUCUUCGGAUGCAGAGGAGGCAGGCUUCGAUGGCGCGAUAGUGCCAACGUGCUCAACCUCCAAUGCAUCCCCCCACAUGAUGAUGCCUGAAGAGCCUUGGUUUUUUG | -6.76
15 | GACCAAUCUGCCCUCAGAGCUCGAGAACAUCUUCGGAUGCAGAGGAGGCAGGCUUCGAUGGCGCGAUAGCGCCAACGUCCUCAUCCUCCAAUGCAUCCCACCACAUGAUGAUGCCUGAAGAGCCUUGGUUUUUUG | -0.731
16 | GACCAAUCUGCCCUCAGAGCUCGAGAACAUCUUCGGAUGCAGAGGAGGCAGGCUUCGAUGGCGCGAUAGCGGCAACGUCCUAAACCUCCAAUGCAUCCCACCACAUGAUCAUACCUGAAGAGCCUUGGUUUUUUG | -6.33
17 | GACCAAUCUGCCCUCAGAGCUCGAGAACAUCUUCGGAUGCAGAGGAGGCAGGCUUCGAUGGCGUGUUAGCGCCAACGUCCUCAACCUCCAAUGCAUCCCACCACAUGAUGAUGCCUGAAGAGCCUUGGUAUUUUG | -2.13
18 | GACCAAUCUGCCCUCAGAGCUCGAGAACAUCUUCGGAUGCAGAGGAGGCAGGCUUCGAUGGCGCGAUAGCGCCAACGUCCUCAACCUCCAAUGCAUCCCACCACAUGAUGAUGCCUGAAGAGCCUUGGUUUUUUG | 0.0445
19 | GACCAAUCUGCCCUCAGAGCUCGAGAACAUCUUCGGAUGCAGAGGAGGCAGGCUUCGAUGGCGCGAUAGGGCCAACGUCCUCAACCUCCAAUGCAUCCCACCACAUGAUGAUGCCUGAAAAGCCUUGGAUUUUUG | -3.9
20 | GACCAAUCUGCCCUCAGAGCUCGAGAACAUCUUCGGAUGCAGAGGAGGCAGGCUUCUGUGGCGCGAUAGCGCCAACGUCCUCAACCUCCAAUGCAUCCCACCACAUGAUGAAGCCUGAAGAGCCUUGGUUUUUUG | 1.54
21 | GACCAAUCUGCCCUCAGAGCUCGAGAACAUCUUCGGAUGCAGAGGAGGCAGGCUUCGAUGGCGCGAUAGCGCCAACGUCCUCAACCUCCACUGCAUCCCAACACAUGAUGAUGCCUGAAGAGCCUUGGUUUUUUG | -1.1
